Target: carcinoembryonic antigen (CEA) (Homo sapiens (Human), UniProt P06731)
Experiment: characterisation according to Example 2 (ELISA on CEA); told in words
Description: Supernatants from BHK cells, which had been transfected with the DNA constructs of the second version of the hum 250/183, were tested for their content of humMab and for the specificity of the humMab.
However, the polystyrene plates were coated with 75 μl of CEA at a concentration of 15 μg/ml. Equal volumes of different concentrations (consecutively dilutions 1:2)

binding result: binds
B1: hum 250/183 (second version of the humanized Mab BW 250/183) (antibody, V domains shown)
VH: QVQLQESGPGLVRPSQTLSLTCTVSGFSDYYMNWVRQPPGRGLEWIGFISNKPNGHTTEYSASVKGRVTMLRDTSKNQFSLRLSSVTAADTAVYYCARDKGIRWYFDVWGQGSLVTVSS
VL: DIQMTQSPSSLSASVGDRVTITCRASSSVSYMHWYQQKPGKAPKPLIYATSNLASGVPSRFSGSGSGTDFTFTISSLQPEDIATYYCQQWSSNPLTFGQGTKVEIKR

— patent publication US5645817, “Granulocyte-binding antibody constructs, their preparation and use” (Behringwerke Aktiengesellschaft, dated 1997)
